Earlier results as cited in article PMC2790341.

Tests used:
NRP1 (Homo sapiens) = NRP1 (Homo sapiens) (UniProt O14786)
VEGFR2 (Homo sapiens) = VEGFR2 (Homo sapiens) (UniProt P35968)
VEGFR1 (Homo sapiens) = VEGFR1 (Homo sapiens) (UniProt P17948)
Chain of UniProt P17948 (P17948 27-1338): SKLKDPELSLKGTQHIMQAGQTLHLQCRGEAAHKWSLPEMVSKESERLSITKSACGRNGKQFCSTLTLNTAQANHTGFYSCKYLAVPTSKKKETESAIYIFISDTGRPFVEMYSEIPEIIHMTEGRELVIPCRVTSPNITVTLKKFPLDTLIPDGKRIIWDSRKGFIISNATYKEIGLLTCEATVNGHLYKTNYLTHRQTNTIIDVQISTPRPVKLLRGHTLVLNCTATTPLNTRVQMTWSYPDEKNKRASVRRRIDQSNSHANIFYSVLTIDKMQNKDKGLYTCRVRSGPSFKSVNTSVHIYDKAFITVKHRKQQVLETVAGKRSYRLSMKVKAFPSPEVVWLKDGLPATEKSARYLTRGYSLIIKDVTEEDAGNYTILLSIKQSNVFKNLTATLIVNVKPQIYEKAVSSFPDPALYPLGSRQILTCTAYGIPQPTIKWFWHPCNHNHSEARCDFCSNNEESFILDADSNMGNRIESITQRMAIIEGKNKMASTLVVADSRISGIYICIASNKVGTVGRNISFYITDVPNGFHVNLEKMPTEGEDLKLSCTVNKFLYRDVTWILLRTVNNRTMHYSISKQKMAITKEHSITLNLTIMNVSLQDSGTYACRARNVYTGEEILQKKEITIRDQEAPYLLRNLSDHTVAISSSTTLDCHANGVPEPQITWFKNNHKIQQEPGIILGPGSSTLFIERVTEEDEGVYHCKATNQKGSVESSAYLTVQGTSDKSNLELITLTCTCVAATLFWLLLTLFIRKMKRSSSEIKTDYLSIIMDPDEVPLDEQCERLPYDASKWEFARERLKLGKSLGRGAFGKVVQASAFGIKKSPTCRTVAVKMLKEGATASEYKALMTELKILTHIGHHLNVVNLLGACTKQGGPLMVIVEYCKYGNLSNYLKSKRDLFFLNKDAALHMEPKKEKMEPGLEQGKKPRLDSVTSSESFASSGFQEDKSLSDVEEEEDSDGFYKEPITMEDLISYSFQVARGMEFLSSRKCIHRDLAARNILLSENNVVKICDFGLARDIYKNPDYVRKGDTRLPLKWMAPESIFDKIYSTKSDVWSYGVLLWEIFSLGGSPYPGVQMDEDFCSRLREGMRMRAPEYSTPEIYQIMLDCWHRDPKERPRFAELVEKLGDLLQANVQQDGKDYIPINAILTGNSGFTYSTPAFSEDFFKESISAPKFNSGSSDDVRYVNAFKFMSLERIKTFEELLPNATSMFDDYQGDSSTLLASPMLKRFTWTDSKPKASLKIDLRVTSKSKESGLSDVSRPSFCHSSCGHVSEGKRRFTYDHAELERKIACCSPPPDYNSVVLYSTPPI

Chain of UniProt P35968 (P35968 20-1356): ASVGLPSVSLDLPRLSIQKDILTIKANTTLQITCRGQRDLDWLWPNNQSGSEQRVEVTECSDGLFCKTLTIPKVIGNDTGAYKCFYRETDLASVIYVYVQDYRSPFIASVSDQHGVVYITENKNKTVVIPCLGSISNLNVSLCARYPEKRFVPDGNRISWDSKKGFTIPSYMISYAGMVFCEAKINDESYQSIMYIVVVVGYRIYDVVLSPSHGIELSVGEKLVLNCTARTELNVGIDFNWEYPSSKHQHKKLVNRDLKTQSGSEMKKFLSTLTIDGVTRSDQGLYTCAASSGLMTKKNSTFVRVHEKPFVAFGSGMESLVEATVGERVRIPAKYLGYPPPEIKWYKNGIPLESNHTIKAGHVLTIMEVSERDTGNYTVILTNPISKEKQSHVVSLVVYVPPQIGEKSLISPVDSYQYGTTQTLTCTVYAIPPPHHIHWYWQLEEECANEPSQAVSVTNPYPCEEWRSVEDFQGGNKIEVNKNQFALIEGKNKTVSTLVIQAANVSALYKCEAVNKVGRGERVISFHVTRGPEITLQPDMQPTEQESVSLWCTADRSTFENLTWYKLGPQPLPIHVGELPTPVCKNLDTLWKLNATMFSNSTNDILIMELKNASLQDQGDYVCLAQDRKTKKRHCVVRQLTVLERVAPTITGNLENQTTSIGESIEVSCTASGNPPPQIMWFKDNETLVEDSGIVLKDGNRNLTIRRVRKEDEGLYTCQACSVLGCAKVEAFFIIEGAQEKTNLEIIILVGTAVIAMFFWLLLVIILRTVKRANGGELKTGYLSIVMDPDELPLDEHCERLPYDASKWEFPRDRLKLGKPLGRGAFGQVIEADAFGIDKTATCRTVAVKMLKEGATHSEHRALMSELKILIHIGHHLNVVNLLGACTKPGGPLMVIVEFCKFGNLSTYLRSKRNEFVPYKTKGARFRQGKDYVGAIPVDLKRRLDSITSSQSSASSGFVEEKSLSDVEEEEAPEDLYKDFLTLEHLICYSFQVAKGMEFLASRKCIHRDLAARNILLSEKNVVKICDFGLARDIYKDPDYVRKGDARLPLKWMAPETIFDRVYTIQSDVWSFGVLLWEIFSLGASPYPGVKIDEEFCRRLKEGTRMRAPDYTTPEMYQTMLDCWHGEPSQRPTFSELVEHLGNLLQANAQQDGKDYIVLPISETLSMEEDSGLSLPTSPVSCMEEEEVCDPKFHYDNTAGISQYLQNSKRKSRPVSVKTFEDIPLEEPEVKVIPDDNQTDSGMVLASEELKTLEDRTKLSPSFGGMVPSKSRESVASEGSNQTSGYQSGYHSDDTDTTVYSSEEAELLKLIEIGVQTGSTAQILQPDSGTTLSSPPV
Chain of UniProt O14786 (O14786 22-923): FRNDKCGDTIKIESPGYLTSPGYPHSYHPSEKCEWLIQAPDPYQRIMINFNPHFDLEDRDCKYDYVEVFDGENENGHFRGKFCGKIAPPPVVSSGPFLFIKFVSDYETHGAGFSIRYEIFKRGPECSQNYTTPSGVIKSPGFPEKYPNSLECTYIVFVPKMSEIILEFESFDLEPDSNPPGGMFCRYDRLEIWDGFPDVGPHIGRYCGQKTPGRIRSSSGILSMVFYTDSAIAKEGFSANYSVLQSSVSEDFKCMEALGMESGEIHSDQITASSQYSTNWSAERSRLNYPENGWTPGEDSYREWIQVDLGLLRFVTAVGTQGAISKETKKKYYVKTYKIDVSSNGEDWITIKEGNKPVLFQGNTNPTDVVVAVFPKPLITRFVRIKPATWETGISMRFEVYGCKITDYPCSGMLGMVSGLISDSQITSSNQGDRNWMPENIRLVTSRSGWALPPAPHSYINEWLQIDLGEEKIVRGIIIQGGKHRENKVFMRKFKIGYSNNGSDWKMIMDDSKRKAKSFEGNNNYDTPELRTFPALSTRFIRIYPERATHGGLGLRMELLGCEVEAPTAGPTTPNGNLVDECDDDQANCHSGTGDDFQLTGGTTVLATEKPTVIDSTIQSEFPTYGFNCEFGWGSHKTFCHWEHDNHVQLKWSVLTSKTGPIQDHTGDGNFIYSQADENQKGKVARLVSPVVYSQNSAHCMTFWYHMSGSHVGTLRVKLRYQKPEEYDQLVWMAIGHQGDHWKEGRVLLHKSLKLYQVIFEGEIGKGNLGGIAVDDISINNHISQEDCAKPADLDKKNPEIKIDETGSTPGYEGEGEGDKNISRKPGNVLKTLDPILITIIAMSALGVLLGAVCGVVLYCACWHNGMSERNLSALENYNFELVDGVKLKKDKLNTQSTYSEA

Kd (NRP1 (Homo sapiens)) [nM] | Kd (VEGFR2 (Homo sapiens)) [nM] | Kd (VEGFR1 (Homo sapiens)) [nM] | Substance
0.312 |  |  | VEGF165 (from UniProt P15692)
 | 0.1 | 0.033 | VEGF (from UniProt P15692)
